Conditions: Clostridium pasteurianum; pH 9.08; Thermal; NMR; Sodium borate 100 mM; reversible: Yes; whole UniProt chain shown

B1: Rubredoxin wild type, P00268 (protein)
chain: MKKYTCTVCGYIYNPEDGDPDNGVNPGTDFKDIPDDWVCPLCGVGKDQFEEVEE
- Tm: 107 °C
- heat capacity change of unfolding: 0.5 kcal/mol/K
- unfolding enthalpy (van 't Hoff): 259 kJ/mol
